Assay results reported in patent US20120288494A1 (published 2012).

T1: human IL-12 p70 (human, UniProt P29460 23-328; P29459 23-219)
T1 construct: also called hIL-12; IL-12 p70 (p40/p35)
T1 sequence 1: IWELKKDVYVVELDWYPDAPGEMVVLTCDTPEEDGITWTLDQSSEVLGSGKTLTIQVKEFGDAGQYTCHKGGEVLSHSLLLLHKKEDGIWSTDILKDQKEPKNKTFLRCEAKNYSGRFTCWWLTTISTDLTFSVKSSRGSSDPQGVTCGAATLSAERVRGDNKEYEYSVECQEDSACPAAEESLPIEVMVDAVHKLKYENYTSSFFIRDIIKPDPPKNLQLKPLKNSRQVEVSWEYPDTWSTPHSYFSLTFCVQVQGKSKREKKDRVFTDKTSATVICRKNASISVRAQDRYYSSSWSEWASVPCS
T1 sequence 2: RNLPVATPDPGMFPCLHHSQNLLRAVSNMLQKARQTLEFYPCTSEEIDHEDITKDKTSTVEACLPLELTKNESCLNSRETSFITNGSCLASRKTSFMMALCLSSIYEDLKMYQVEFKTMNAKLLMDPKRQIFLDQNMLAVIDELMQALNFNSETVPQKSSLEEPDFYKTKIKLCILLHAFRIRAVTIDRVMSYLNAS

T2: Human Chimera 1 (human IL-12 p40 Y16R) (human, UniProt P29460 23-328)
T2 construct: Predominantly human p40 with the rat residue; HEK293.F supernatant; also called Site 7a
T2 sequence: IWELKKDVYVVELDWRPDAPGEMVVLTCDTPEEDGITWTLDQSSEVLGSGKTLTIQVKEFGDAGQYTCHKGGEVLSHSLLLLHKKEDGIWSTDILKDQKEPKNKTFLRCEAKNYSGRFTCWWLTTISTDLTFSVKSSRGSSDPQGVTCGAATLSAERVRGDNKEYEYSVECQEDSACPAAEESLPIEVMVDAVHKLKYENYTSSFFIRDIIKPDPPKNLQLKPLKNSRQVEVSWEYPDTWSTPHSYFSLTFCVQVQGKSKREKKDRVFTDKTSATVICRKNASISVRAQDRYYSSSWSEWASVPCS

T3: Human Chimera 2 (human IL-12 p40 D87N) (human, UniProt P29460 23-328)
T3 construct: Predominantly human p40 with the rat residue; HEK293.F supernatant; also called Site 7b
T3 sequence: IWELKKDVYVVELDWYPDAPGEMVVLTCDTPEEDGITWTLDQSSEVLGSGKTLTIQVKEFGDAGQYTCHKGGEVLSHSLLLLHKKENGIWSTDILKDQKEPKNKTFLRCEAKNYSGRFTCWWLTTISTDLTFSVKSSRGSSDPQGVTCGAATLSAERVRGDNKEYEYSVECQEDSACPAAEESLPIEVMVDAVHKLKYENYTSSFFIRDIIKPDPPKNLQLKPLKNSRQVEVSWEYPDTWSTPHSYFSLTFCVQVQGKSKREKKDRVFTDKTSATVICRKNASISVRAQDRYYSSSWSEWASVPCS

T4: Human Chimera 9 (human IL-12 p40 G35D & G61L) (human, UniProt P29460 23-328)
T4 construct: Predominantly human p40 with rat residues; the two residues were only mutated together; also called Sites 9, 10
T4 chain: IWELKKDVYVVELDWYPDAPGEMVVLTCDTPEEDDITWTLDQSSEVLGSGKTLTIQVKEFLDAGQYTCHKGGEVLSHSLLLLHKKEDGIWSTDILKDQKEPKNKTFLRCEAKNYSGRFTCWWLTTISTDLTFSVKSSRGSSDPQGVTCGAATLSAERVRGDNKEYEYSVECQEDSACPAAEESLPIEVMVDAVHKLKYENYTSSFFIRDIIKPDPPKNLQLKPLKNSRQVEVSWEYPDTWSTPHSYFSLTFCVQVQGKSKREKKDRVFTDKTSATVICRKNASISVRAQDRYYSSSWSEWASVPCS


Tests used:
human IL-12 p70 [1] = target: T1, human IL-12 p70; assay: method not stated in the sentence (Biacore named in Example 1A)
[2] = target: T2, Human Chimera 1 (human IL-12 p40 Y16R); assay: SPR (Biacore), mAb immobilised, chimera supernatant injected
Method: (§1) Specifically, antibody was covalently linked via free amine groups to the Biacore chip dextran matrix by first activating carboxyl groups on the matrix with 100 mM N-hydroxysuccinimide (NHS) and 400 mM N-Ethyl-N′-(3-dimethylaminopropyl)-carbodiimide hydrochloride (EDC). This was completed across four different flow cells. […] Typically, 5000 resonance units were immobilized. Unreacted matrix EDC-esters were deactivated by an injection of 1 M ethanolamine.
(§2) To ascertain the epitope pattern of several different monoclonal antibodies against IL-12p40 supernatant samples, a direct binding assay was conducted. Aliquots of recombinant human IL-12p40 (100 nM) were injected across covalently immobilized antibody on the Biacore dextran chip biosensor surface at a flow rate of 25 mL/min. Before injection of the antigen and immediately afterward, HBS-EP buffer alone flowed through each flow cell. […] The response was measured in Resonance Units (RU's). […] The covalently immobilized antibody-coupled surfaces were completely regenerated using 10 mM HCl (5 min contact time) and retained their full binding capacity over twenty cycles.

[3] = target: T3, Human Chimera 2 (human IL-12 p40 D87N); assay: as above
Method: as §1, §2

[4] = target: T4, Human Chimera 9 (human IL-12 p40 G35D & …); assay: SPR (Biacore), mAb immobilised; grade of the mutation's effect: - = no effect
Method: as §1, §2

human IL-12 p70 [5] = target: T1, human IL-12 p70; assay: not stated in the sentence (FIG. 2)

Kd (human IL-12 p70 [1]) [nM]	binding result [2]	binding result [3]	binding result [4]	fold increase in efficacy over Joe 9 (human IL-12 p70 [5]) [fold]	Binder
0.102	no binding	no binding	binds		J695 (antibody, IgG1, V domains shown, Recombinant human mAb from CHO cells, IgG1 heavy and lambda light chain constant regions; also called human mAb J695) VH: QVQLVESGGGVVQPGRSLRLSCAASGFTFSSYGMHWVRQAPGKGLEWVAFIRYDGSNKYYADSVKGRFTISRDNSKNTLYLQMNSLRAEDTAVYYCKTHGSHDNWGQGTMVTVSS VL: QSVLTQPPSVSGAPGQRVTISCSGSRSNIGSNTVKWYQQLPGTAPKLLIYYNDQRPSGVPDRFSGSKSGTSASLAITGLQAEDEADYYCQSYDRYTHPALLFGTGTKVTVLG
				1000	103-14 (antibody, V domains shown) VH: QVQLVQSGGGVVQPGRSLRLSCAASGFTFSSYGMHWVRQAPGKGLEWVAFIRYDGSNKYYADSVKGRFTISRDNSKNTLYLQMKSLRAEDTAVYYCKTHGSHDNWGQGTMVTVSS VL: SYVLTQPPSVSGTPGQRVTISCSGGRSNIGSNTVKWYQQLPGTAPKLLIYGNDQRPSGVPDRFSGSKSGTSASLAITGVQAEDEADYYCQSYDRGFTGSMVFGTGTKVTVL
